Experimental findings from patent US20120003684A1, “Method and Means for Detecting the Activity of Osteoclasts” (TECHNISCHE UNIVERSITAET DRESDEN, priority 2009, published 2012) are described below.

Experiment [1] relates to osteoclasts differentiated by RANKL from mouse osteoclast precursor cell line RAW 264.7. Kind of experiment: osteoclast resorption assay on bio-mineralized matrix, inhibition study (FIG. 4). The class given is cell-based. The following applies: RAW 264.7 differentiated by RANKL addition (40 ng/ml). As to the method:
Moreover, particularly in medical research the examination of inhibiting materials or activators of osteoclast activity is especially of interest. As an example, in FIG. 4 it is shown that the osteoclast activity depends on the inhibitor interferon-y. The osteoclasts were differentiated by RANKL addition (40 ng/ml)) from a mouse osteoclast precursor cell line (RAW 264.7). […] Accordingly, the invention can also be utilized for inhibition studies in relation to osteoclast resorption activity.
For the synthesis of a bone-like physiological matrix, the human osteoblast precursor cell line SAOS-2 (DSMZ ACC 243, DSMZ, Braunschweig) is used in this embodiment. The cells are seeded on cell culturing plates. The differentiation of the cells is realized by addition of ascorbate (300 μmol/l) and β-glycerophosphate (10 mmol/l) to the medium (alpha MEM, Biochrom, 10% FCS). […]
(§1) The resorption assay is based on the combination of two methods with each other. […] For determining the resorption surface area the dried plates were subsequently scanned by a transmitted light scanner and evaluated e.g. by means of Image Quant. In this connection, the scanned surface area was determined and white surfaces differentiated from black surfaces. The volume of the white surface area can then be calculated by means of the calibration line (see FIG. 2) into the actual resorted surface area.

In experiment [2] the test system is primary mouse osteoclast precursor cells (primary mouse bone marrow monocytes). The experiment can be described thus: osteoclast resorption assay on bio-mineralized matrix, MCSF dependency (FIG. 1). The format is cell-based. The following applies: RANKL (40 ng/ml) present, as a function of MCSF concentration.
Source text: The sequence is divided into two phases. In phase I, the matrix synthesis with osteoblasts occurs; the latter, after production of the matrix (approximately 25 days), are removed from the matrix. The subsequent phase II encompasses the use of the matrix for the osteoclast resorption assay. In this connection, the method in this example was employed in order to examine the resorption activity of primary mouse osteoclast precursor cells (primary mouse bone marrow monocytes) as a function of the concentration of MCSF (macrophage colony-stimulating factor).
For the synthesis of a bone-like physiological matrix, the human osteoblast precursor cell line SAOS-2 (DSMZ ACC 243, DSMZ, Braunschweig) is used in this embodiment. The cells are seeded on cell culturing plates. […]
as §1

B1: interferon-y: inhibitor of osteoclast activity (protein, UniProt P01579 24-161, looked up)
Interferon gamma: QDPYVKEAENLKKYFNAGHSDVADNGTLFLGILKNWKEESDRKIMQSQIVSFYFKLFKNFKDDQSIQKSVETIKEDMNVKFFNSNKKKRDDFEKLTNYSVTDLNVQRKAIHELIQVMAELSPAAKTGKRKRSQMLFRG
As for B1, the “osteoclast activity (resorption activity)” value in experiment [1] was “concentration-dependent inhibition”.

B2: MCSF: macrophage colony-stimulating factor, cytokine added for osteoclast differentiation (protein, UniProt P09603 33-554, looked up)
Macrophage colony-stimulating …: EEVSEYCSHMIGSGHLQSLQRLIDSQMETSCQITFEFVDQEQLKDPVCYLKKAFLLVQDIMEDTMRFRDNTPNAIAIVQLQELSLRLKSCFTKDYEEHDKACVRTFYETPLQLLEKVKNVFNETKNLLDKDWNIFSKNCNNSFAECSSQDVVTKPDCNCLYPKAIPSSDPASVSPHQPLAPSMAPVAGLTWEDSEGTEGSSLLPGEQPLHTVDPGSAKQRPPRSTCQSFEPPETPVVKDSTIGGSPQPRPSVGAFNPGMEDILDSAMGTNWVPEEASGEASEIPVPQGTELSPSRPGGGSMQTEPARPSNFLSASSPLPASAKGQQPADVTGTALPRVGPVRPTGQDWNHTPQKTDHPSALLRDPPEPGSPRISSLRPQGLSNPSTLSAQPQLSRSHSSGSVLPLGELEGRRSTRDRRSPAEPEGGPASEGAARPLPRFNSVPLTDTGHERQSEGSFSPQLQESVFHLLVPSVILVLLAVGGLLFYRWRRRSHQEPQRADSPLEQPEGSPLTQDDRQVELPV
B2: in experiment [2], the “resorption activity of the differentiated osteoclasts” value is reported as “depends on the quantity of added MCSF”.
